Source: PMC7904846, “Nanobody-based chimeric antigen receptor T cells designed by CRISPR/Cas9 technology for solid tumor immunotherapy” (Signal Transduction and Targeted Therapy, 2021)

Molecular target: T1, CD105 (Homo sapiens, UniProt P17813)
T1 construct: CD105 (endoglin), human; also called endoglin; CD105 protein
Assay: SPR; CD105 Nbs (10 ug/mL) immobilised on PlexArray Nanocapture Sensor Chips; different concentrations injected at 3.0 uL/s; PlexArray HT system; regeneration with 0.05 mol/L NaOH; 25 °C; triplicate
Conditions: both partners purified

T1 sequence (P17813 26-658): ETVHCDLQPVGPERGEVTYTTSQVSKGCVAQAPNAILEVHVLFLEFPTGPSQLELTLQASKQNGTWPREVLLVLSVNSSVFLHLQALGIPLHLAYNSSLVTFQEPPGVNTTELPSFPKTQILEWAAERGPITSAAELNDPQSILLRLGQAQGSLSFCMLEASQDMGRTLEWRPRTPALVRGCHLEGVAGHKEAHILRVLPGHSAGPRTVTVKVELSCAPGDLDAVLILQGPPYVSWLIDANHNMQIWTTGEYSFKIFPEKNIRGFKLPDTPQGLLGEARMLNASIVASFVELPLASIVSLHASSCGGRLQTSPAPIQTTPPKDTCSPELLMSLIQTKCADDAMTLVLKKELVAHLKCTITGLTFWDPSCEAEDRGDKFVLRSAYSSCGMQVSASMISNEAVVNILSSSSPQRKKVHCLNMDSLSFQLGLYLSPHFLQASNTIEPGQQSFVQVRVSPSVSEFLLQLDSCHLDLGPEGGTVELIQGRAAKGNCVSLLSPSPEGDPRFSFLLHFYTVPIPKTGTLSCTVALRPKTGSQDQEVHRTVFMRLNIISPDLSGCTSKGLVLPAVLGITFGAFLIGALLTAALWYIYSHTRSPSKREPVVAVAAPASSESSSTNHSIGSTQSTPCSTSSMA

B1: Nb C184 (VHH)
VHH: QVQLQESGGGSVQAGGSLRLSCVASGYTVSRGYMGWFRQAPGKEREAVAAIRTGSGSTYYADSVKGRFTISQDNAKNTVYLQMNSLKHEDTGMYYCAASLWYGGNWQSWGSYNYWGQGTQVTVSS
notes: camel VHH selected by phage display against CD105; Cloned in phagemid pMECS, which gives C-terminal hemagglutinin-His6-tagged Nbs; In the CAR the same VHH is joined to the CD8a hinge and transmembrane domain, 4-1BB and CD3zeta; also called anti-CD105 Nanobody (C184); CD105 Nb
Q: Does B1 bind?
A: binds
